Assay results: article PMC7367873, “Dissecting the sequence determinants for dephosphorylation by the catalytic subunits of phosphatases PP1 and PP2A” (Nature Communications, 2020)

Experiments:
[1] = system: GFP-14-3-3β and its binding proteins; assay: GFP-14-3-3β co-IP with LC-MS/MS label-free quantification, untreated versus PP1c-treated; set-up: species or system human
[2] = system: GFP-14-3-3β; assay: GFP-14-3-3β co-IP with LC-MS/MS, untreated GFP-14-3-3β versus GFP control (14-3-3 interactome); format: binding, human
[3] = PP1 vs untreated, LFQ intensities, replicates 1-3
[4] = untreated vs GFP, LFQ intensities, replicates 1-3

Difference (log2), PP1 vs untreated [1, 3] | Difference (log2), PP1 vs untreated ([1]; log2 difference, pairwise comparison PP1 vs untreated, label-free quantification, 3 replicates each) | Molecule | Difference (log2), untreated vs GFP [2, 4] | Difference (log2), untreated vs GFP ([2]; log2 difference, pairwise comparison untreated vs GFP, label-free quantification, 3 replicates each)
-0.9888 log2 | – | CENPV (protein, UniProt Q7Z7K6 1-275, looked up) Centromere protein V: MRRSRSSAAAKLRGQKRSGASGASAAPAASAAAALAPSATRTRRSASQAGSKSQAVEKPPSEKPRLRRSSPRAQEEGPGEPPPPELALLPPPPPPPPTPATPTSSASNLDLGEQRERWETFQKRQKLTSEGAAKLLLDTFEYQGLVKHTGGCHCGAVRFEVWASADLHIFDCNCSICKKKQNRHFIVPASRFKLLKGAEHITTYTFNTHKAQHTFCKRCGVQSFYTPRSNPGGFGIAPHCLDEGTVRSMVTEEFNGSDWEKAMKEHKTIKNMSKE | 2.895 log2 | –
– | 1.645 | TMEM33 (protein, UniProt P57088 2-247, looked up) Transmembrane protein 33: ADTTPNGPQGAGAVQFMMTNKLDTAMWLSRLFTVYCSALFVLPLLGLHEAASFYQRALLANALTSALRLHQRLPHFQLSRAFLAQALLEDSCHYLLYSLIFVNSYPVTMSIFPVLLFSLLHAATYTKKVLDARGSNSLPLLRSVLDKLSANQQNILKFIACNEIFLMPATVFMLFSGQGSLLQPFIYYRFLTLRYSSRRNPYCRTLFNELRIVVEHIIMKPACPLFVRRLCLQSIAFISRLAPTVP | – | 0.3842
-0.9344 log2 | – | GIGYF2 (protein, UniProt Q6Y7W6 2-1299, looked up) GRB10-interacting GYF protein …: AAETQTLNFGPEWLRALSSGGSITSPPLSPALPKYKLADYRYGREEMLALFLKDNKIPSDLLDKEFLPILQEEPLPPLALVPFTEEEQRNFSMSVNSAAVLRLTGRGGGGTVVGAPRGRSSSRGRGRGRGECGFYQRSFDEVEGVFGRGGGREMHRSQSWEERGDRRFEKPGRKDVGRPNFEEGGPTSVGRKHEFIRSESENWRIFREEQNGEDEDGGWRLAGSRRDGERWRPHSPDGPRSAGWREHMERRRRFEFDFRDRDDERGYRRVRSGSGSIDDDRDSLPEWCLEDAEEEMGTFDSSGAFLSLKKVQKEPIPEEQEMDFRPVDEGEECSDSEGSHNEEAKEPDKTNKKEGEKTDRVGVEASEETPQTSSSSARPGTPSDHQSQEASQFERKDEPKTEQTEKAEEETRMENSLPAKVPSRGDEMVADVQQPLSQIPSDTASPLLILPPPVPNPSPTLRPVETPVVGAPGMGSVSTEPDDEEGLKHLEQQAEKMVAYLQDSALDDERLASKLQEHRAKGVSIPLMHEAMQKWYYKDPQGEIQGPFNNQEMAEWFQAGYFTMSLLVKRACDESFQPLGDIMKMWGRVPFSPGPAPPPHMGELDQERLTRQQELTALYQMQHLQYQQFLIQQQYAQVLAQQQKAALSSQQQQQLALLLQQFQTLKMRISDQNIIPSVTRSVSVPDTGSIWELQPTASQPTVWEGGSVWDLPLDTTTPGPALEQLQQLEKAKAAKLEQERREAEMRAKREEEERKRQEELRRQQEEILRRQQEEERKRREEEELARRKQEEALRRQREQEIALRRQREEEERQQQEEALRRLEERRREEEERRKQEELLRKQEEEAAKWAREEEEAQRRLEENRLRMEEEAARLRHEEEERKRKELEVQRQKELMRQRQQQQEALRRLQQQQQQQQLAQMKLPSSSTWGQQSNTTACQSQATLSLAEIQKLEEERERQLREEQRRQQRELMKALQQQQQQQQQKLSGWGNVSKPSGTTKSLLEIQQEEARQMQKQQQQQQQHQQPNRARNNTHSNLHTSIGNSVWGSINTGPPNQWASDLVSSIWSNADTKNSNMGFWDDAVKEVGPRNSTNKNKNNASLSKSVGVSNRQNKKVEEEEKLLKLFQGVNKAQDGFTQWCEQMLHALNTANNLDVPTFVSFLKEVESPYEVHDYIRAYLGDTSEAKEFAKQFLERRAKQKANQQRQQQQLPQQQQQQPPQQPPQQPQQQDSVWGMNHSTLHSVFQTNQSNNQQSNFEAVQSGKKKKKQKMVRADPSLLGFSVNASSERLNMGEIETLDDY | 2.445 log2 | –
-0.9107 log2 | – | HSD17B4 (protein, UniProt P51659 1-736, looked up) Peroxisomal multifunctional …: MGSPLRFDGRVVLVTGAGAGLGRAYALAFAERGALVVVNDLGGDFKGVGKGSLAADKVVEEIRRRGGKAVANYDSVEEGEKVVKTALDAFGRIDVVVNNAGILRDRSFARISDEDWDIIHRVHLRGSFQVTRAAWEHMKKQKYGRIIMTSSASGIYGNFGQANYSAAKLGLLGLANSLAIEGRKSNIHCNTIAPNAGSRMTQTVMPEDLVEALKPEYVAPLVLWLCHESCEENGGLFEVGAGWIGKLRWERTLGAIVRQKNHPMTPEAVKANWKKICDFENASKPQSIQESTGSIIEVLSKIDSEGGVSANHTSRATSTATSGFAGAIGQKLPPFSYAYTELEAIMYALGVGASIKDPKDLKFIYEGSSDFSCLPTFGVIIGQKSMMGGGLAEIPGLSINFAKVLHGEQYLELYKPLPRAGKLKCEAVVADVLDKGSGVVIIMDVYSYSEKELICHNQFSLFLVGSGGFGGKRTSDKVKVAVAIPNRPPDAVLTDTTSLNQAALYRLSGDWNPLHIDPNFASLAGFDKPILHGLCTFGFSARRVLQQFADNDVSRFKAIKARFAKPVYPGQTLQTEMWKEGNRIHFQTKVQETGDIVISNAYVDLAPTSGTSAKTPSEGGKLQSTFVFEEIGRRLKDIGPEVVKKVNAVFEWHITKGGNIGAKWTIDLKSGSGKVYQGPAKGAADTTIILSDEDFMEVVLGKLDPQKAFFSGRLKARGNIMLSQKLQMILKDYAKL | -0.9814 log2 | –
-0.9629 log2 | – | TJP2 (protein, UniProt Q9UDY2 1-1190, looked up) Tight junction protein 2: MPVRGDRGFPPRRELSGWLRAPGMEELIWEQYTVTLQKDSKRGFGIAVSGGRDNPHFENGETSIVISDVLPGGPADGLLQENDRVVMVNGTPMEDVLHSFAVQQLRKSGKVAAIVVKRPRKVQVAALQASPPLDQDDRAFEVMDEFDGRSFRSGYSERSRLNSHGGRSRSWEDSPERGRPHERARSRERDLSRDRSRGRSLERGLDQDHARTRDRSRGRSLERGLDHDFGPSRDRDRDRSRGRSIDQDYERAYHRAYDPDYERAYSPEYRRGARHDARSRGPRSRSREHPHSRSPSPEPRGRPGPIGVLLMKSRANEEYGLRLGSQIFVKEMTRTGLATKDGNLHEGDIILKINGTVTENMSLTDARKLIEKSRGKLQLVVLRDSQQTLINIPSLNDSDSEIEDISEIESNRSFSPEERRHQYSDYDYHSSSEKLKERPSSREDTPSRLSRMGATPTPFKSTGDIAGTVVPETNKEPRYQEDPPAPQPKAAPRTFLRPSPEDEAIYGPNTKMVRFKKGDSVGLRLAGGNDVGIFVAGIQEGTSAEQEGLQEGDQILKVNTQDFRGLVREDAVLYLLEIPKGEMVTILAQSRADVYRDILACGRGDSFFIRSHFECEKETPQSLAFTRGEVFRVVDTLYDGKLGNWLAVRIGNELEKGLIPNKSRAEQMASVQNAQRDNAGDRADFWRMRGQRSGVKKNLRKSREDLTAVVSVSTKFPAYERVLLREAGFKRPVVLFGPIADIAMEKLANELPDWFQTAKTEPKDAGSEKSTGVVRLNTVRQIIEQDKHALLDVTPKAVDLLNYTQWFPIVIFFNPDSRQGVKTMRQRLNPTSNKSSRKLFDQANKLKKTCAHLFTATINLNSANDSWFGSLKDTIQHQQGEAVWVSEGKMEGMDDDPEDRMSYLTAMGADYLSCDSRLISDFEDTDGEGGAYTDNELDEPAEEPLVSSITRSSEPVQHEESIRKPSPEPRAQMRRAASSDQLRDNSPPPAFKPEPPKAKTQNKEESYDFSKSYEYKSNPSAVAGNETPGASTKGYPPPVAAKPTFGRSILKPSTPIPPQEGEEVGESSEEQDNAPKSVLGKVKIFEKMDHKARLQRMQELQEAQNARIEIAQKHPDIYAVPIKTHKPDPGTPQHTSSRPPEPQKAPSRPYQDTRGSYGSDAEEEEYRQQLSEHSKRGYYGQSARYRDTEL | 5.699 log2 | –
-0.9011 log2 | – | DBN1 (protein, UniProt Q16643 2-649, looked up) Drebrin: AGVSFSGHRLELLAAYEEVIREESAADWALYTYEDGSDDLKLAASGEGGLQELSGHFENQKVMYGFCSVKDSQAALPKYVLINWVGEDVPDARKCACASHVAKVAEFFQGVDVIVNASSVEDIDAGAIGQRLSNGLARLSSPVLHRLRLREDENAEPVGTTYQKTDAAVEMKRINREQFWEQAKKEEELRKEEERKKALDERLRFEQERMEQERQEQEERERRYREREQQIEEHRRKQQTLEAEEAKRRLKEQSIFGDHRDEEEETHMKKSESEVEEAAAIIAQRPDNPREFFKQQERVASASAGSCDVPSPFNHRPGSHLDSHRRMAPTPIPTRSPSDSSTASTPVAEQIERALDEVTSSQPPPLPPPPPPAQETQEPSPILDSEETRAAAPQAWAGPMEEPPQAQAPPRGPGSPAEDLMFMESAEQAVLAAPVEPATADATEIHDAADTIETDTATADTTVANNVPPAATSLIDLWPGNGEGASTLQGEPRAPTPPSGTEVTLAEVPLLDEVAPEPLLPAGEGCATLLNFDELPEPPATFCDPEEVEGESLAAPQTPTLPSALEELEQEQEPEPHLLTNGETTQKEGTQASEGYFSQSQEEEFAQSEELCAKAPPPVFYNKPPEIDITCWDADPVPEEEEGFEGGD | -0.06481 log2 | –
-1.001 log2 | – | ACIN1 (protein, UniProt Q9UKV3 1-1341, looked up) Apoptotic chromatin …: MWRRKHPRTSGGTRGVLSGNRGVEYGSGRGHLGTFEGRWRKLPKMPEAVGTDPSTSRKMAELEEVTLDGKPLQALRVTDLKAALEQRGLAKSGQKSALVKRLKGALMLENLQKHSTPHAAFQPNSQIGEEMSQNSFIKQYLEKQQELLRQRLEREAREAAELEEASAESEDEMIHPEGVASLLPPDFQSSLERPELELSRHSPRKSSSISEEKGDSDDEKPRKGERRSSRVRQARAAKLSEGSQPAEEEEDQETPSRNLRVRADRNLKTEEEEEEEEEEEEDDEEEEGDDEGQKSREAPILKEFKEEGEEIPRVKPEEMMDERPKTRSQEQEVLERGGRFTRSQEEARKSHLARQQQEKEMKTTSPLEEEEREIKSSQGLKEKSKSPSPPRLTEDRKKASLVALPEQTASEEETPPPLLTKEASSPPPHPQLHSEEEIEPMEGPAPAVLIQLSPPNTDADTRELLVSQHTVQLVGGLSPLSSPSDTKAESPAEKVPEESVLPLVQKSTLADYSAQKDLEPESDRSAQPLPLKIEELALAKGITEECLKQPSLEQKEGRRASHTLLPSHRLKQSADSSSSRSSSSSSSSSRSRSRSPDSSGSRSHSPLRSKQRDVAQARTHANPRGRPKMGSRSTSESRSRSRSRSRSASSNSRKSLSPGVSRDSSTSYTETKDPSSGQEVATPPVPQLQVCEPKERTSTSSSSVQARRLSQPESAEKHVTQRLQPERGSPKKCEAEEAEPPAATQPQTSETQTSHLPESERIHHTVEEKEEVTMDTSENRPENDVPEPPMPIADQVSNDDRPEGSVEDEEKKESSLPKSFKRKISVVSATKGVPAGNSDTEGGQPGRKRRWGASTATTQKKPSISITTESLKSLIPDIKPLAGQEAVVDLHADDSRISEDETERNGDDGTHDKGLKICRTVTQVVPAEGQENGQREEEEEEKEPEAEPPVPPQVSVEVALPPPAEHEVKKVTLGDTLTRRSISQQKSGVSITIDDPVRTAQVPSPPRGKISNIVHISNLVRPFTLGQLKELLGRTGTLVEEAFWIDKIKSHCFVTYSTVEEAVATRTALHGVKWPQSNPKFLCADYAEQDELDYHRGLLVDRPSETKTEEQGIPRPLHPPPPPPVQPPQHPRAEQREQERAVREQWAEREREMERRERTRSEREWDRDKVREGPRSRSRSRDRRRKERAKSKEKKSEKKEKAQEEPPAKLLDDLFRKTKAAPCIYWLPLTDSQIVQKEAERAERAKEREKRRKEQEEEEQKEREKEAERERNRQLEREKRREHSRERDRERERERERDRGDRDRDRERDRERGRERDRRDTKRHSRSRSRSTPVRDRGGRR | 1.747 log2 | –
